Kd, koff and kon data for four molecules are collected here from patent CN116478288A (ZHEJIANG BLUE SHIELD PHARMA CO LTD, dated 2023).

Where a chain is given by its changes, count along the chain named.

To fix the notation:
B1: 嵌合抗体ID 3 (antibody, human IgG4 S228P, kappa, V domains shown)
VH: QVQLQQPGAELVKPGAPVKLSCKASGYTFTSYWMNWVKQRPGRGLEWIGRIDSSDSETHYNQKFKDKATLTVDKSSSTAYIQLSSLTSEDSAVYYCARQGEGLRRSWFPYWGQGTLVIVSA
VL: DIVLTQSPASLAVSLGQRATISCRASKSVSTSGYSYIHWYQQKPGQPPKLLIYVASNLQSGVPARFSGSGSGTDFTLNIHPVEEEDAATYYCQHIRELPWTFGGGTKLEIKR
B2: 人源化抗体ID 5 (antibody, human IgG4 S228P, kappa)
heavy: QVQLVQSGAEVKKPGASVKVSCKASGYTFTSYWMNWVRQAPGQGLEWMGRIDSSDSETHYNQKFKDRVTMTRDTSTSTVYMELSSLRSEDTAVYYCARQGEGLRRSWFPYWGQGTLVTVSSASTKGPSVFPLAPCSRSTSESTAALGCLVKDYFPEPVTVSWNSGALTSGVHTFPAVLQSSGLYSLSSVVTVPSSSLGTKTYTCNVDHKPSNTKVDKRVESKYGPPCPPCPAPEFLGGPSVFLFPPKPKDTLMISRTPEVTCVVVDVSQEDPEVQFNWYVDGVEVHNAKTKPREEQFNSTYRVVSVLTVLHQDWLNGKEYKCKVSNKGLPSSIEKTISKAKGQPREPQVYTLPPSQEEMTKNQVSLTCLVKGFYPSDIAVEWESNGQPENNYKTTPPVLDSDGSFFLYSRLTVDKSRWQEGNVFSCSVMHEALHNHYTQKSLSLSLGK
light: DIVMTQSPDSLAVSLGERATINCRASKSVSTSGYSYIHWYQQKPGQPPKLLIYVASNLQSGVPDRFSGSGSGTDFTLTISSVQAEDVAVYYCQHIRELPWTFGQGTKVEIKRTVAAPSVFIFPPSDEQLKSGTASVVCLLNNFYPREAKVQWKVDNALQSGNSQESVTEQDSKDSTYSLSSTLTLSKADYEKHKVYACEVTHQGLSSPVTKSFNRGEC
notes: Humanized, human IgG4; also called VH1+VL2
B3: 人源化抗体ID 4 (antibody, human IgG4 S228P, kappa, V domains shown)
VH: QVQLVQSGAEVKKPGASVKVSCKASGYTFTSYWMNWVRQAPGQGLEWMGRIDSSDSETHYNQKFKDRVTMTRDTSTSTVYMELSSLRSEDTAVYYCARQGEGLRRSWFPYWGQGTLVTVSS
VL: DIVMTQSPDSLAVSLGERATINCRASKSVSTSGYSYIHWYQQKPGQPPKLLIYVASNLQSGVPDRFSGSGSGTDFTLTISSLQAEDVAVYYCQHIRELPWTFGQGTKVEIKR
notes: Humanized, human IgG4; also called VH1+VL1
B4: 人源化抗体ID 2 (antibody, human IgG4 S228P, kappa)
heavy: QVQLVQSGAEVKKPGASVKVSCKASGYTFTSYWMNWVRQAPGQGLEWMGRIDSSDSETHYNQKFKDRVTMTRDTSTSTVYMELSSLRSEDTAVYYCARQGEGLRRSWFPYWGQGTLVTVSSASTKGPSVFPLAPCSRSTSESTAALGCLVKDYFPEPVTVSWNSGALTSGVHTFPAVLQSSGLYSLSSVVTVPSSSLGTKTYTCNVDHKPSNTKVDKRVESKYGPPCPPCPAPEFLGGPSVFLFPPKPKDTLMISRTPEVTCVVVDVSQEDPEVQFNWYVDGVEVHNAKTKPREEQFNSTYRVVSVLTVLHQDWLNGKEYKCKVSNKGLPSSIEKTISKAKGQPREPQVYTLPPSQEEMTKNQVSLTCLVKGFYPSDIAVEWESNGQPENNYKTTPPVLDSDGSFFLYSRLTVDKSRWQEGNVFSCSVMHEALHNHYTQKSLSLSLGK
light: B2 light with V108L
notes: Humanized, human IgG4 constant region and human light chain constant region, expressed in 293F cells; also called VH1+VL3

T1 sequence (Q08722 19-139 limits assumed): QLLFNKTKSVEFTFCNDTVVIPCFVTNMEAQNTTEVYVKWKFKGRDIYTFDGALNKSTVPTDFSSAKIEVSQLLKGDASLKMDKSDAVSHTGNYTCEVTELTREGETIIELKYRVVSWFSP

This experiment has as its target T1, (融合小鼠Fc的)CD47 (human, UniProt Q08722 19-139, limits assumed).
T1 construct: also called CD47-mFC; not shown: mouse Fc
Description: SPR Biacore 8K, antibody on CM5 chip, CD47-mFc as analyte, 1:1 fit, 25 C.
Take B1: the Kd (in general, the equilibrium constant for the complex coming apart) turned out to be 0.668 nM; the koff (as a rule, a measure of how fast the partners let go of each other) was 0.000265 s⁻¹; the kon (as a rule, the rate constant with which the complex forms) turned out to be 397000 M⁻¹ s⁻¹.
Taken in the same sequence, the figures for B2 were 0.623 nM, 0.000303 s⁻¹ and 486000 M⁻¹ s⁻¹.
B3 had a Kd of 0.79 nM, a koff of 0.00038 s⁻¹ and a kon of 482000 M⁻¹ s⁻¹.
Taken in the same sequence, the figures for B4 were 0.623 nM, 0.000283 s⁻¹ and 454000 M⁻¹ s⁻¹.
